The results in this text go back to FireProtDB (doi:10.1021/bi002792f).

First the molecules themselves.
B1: Lysozyme C, P61626 (parent)
chain: MKALIVLGLVLLSVTVQGKVFERCELARTLKRLGMDGYRGISLANWMCLAKWESGYNTRATNYNAGDRSTDYGIFQINSRYWCNDGKTPGAVNACHLSCSALLQDNIADAVACAKRVVRDPQGIRAWVAWRNRCQNRDVRQYVQGCGV

Variants of B1 are the subject of this data set. The following applies: Homo sapiens, pH 2.7, Thermal, DSC, Gly-HCl 0.05 M, reversible: yes, structure 1LZ1, whole UniProt chain shown.

V118T: for the setting “64.9 °C”, the “heat capacity change of unfolding” value worked out at 1.53 kcal/mol/K and the “unfolding enthalpy (calorimetric)” value was 107 kcal/mol.

With A27S, the Tm – broadly, the temperature at which the thermal transition is half complete – is 64.8 °C; the “change of melting temperature, mutant - wild type (higher = more stable)” value (“change of melting temperature, mutant” below) was -0.1 °C; the “heat capacity change of unfolding” value came out at 1.27 kcal/mol/K. Besides, under “64.9 °C”, the “heat capacity change of unfolding” value worked out at 1.27 kcal/mol/K and the “unfolding enthalpy (calorimetric)” value is 106 kcal/mol.

Take A114S: the Tm came out at 61.6 °C; the “change of melting temperature, mutant” value was -3.3 °C; the “heat capacity change of unfolding” value stood at 1.29 kcal/mol/K. Under “64.9 °C”, the “ddG of mutation (higher = less stable)” value was determined as 1 kcal/mol, the “heat capacity change of unfolding” value amounted to 1.29 kcal/mol/K and the “unfolding enthalpy (calorimetric)” value came to 103 kcal/mol.

As to V111T, the Tm came out at 62.6 °C; the “change of melting temperature, mutant” value was -2.3 °C; the “heat capacity change of unfolding” value was 1.12 kcal/mol/K. Also, for the setting “64.9 °C”, the “ddG of mutation (higher = less stable)” value turned out to be 0.67 kcal/mol, the “heat capacity change of unfolding” value is 1.12 kcal/mol/K and the “unfolding enthalpy (calorimetric)” value worked out at 101 kcal/mol.

Take A110S: the Tm is 67.5 °C; the “change of melting temperature, mutant” value was found to be 2.6 °C; the “heat capacity change of unfolding” value stood at 2.01 kcal/mol/K. Moreover, under “64.9 °C”, the “heat capacity change of unfolding” value was found to be 2.01 kcal/mol/K and the “unfolding enthalpy (calorimetric)” value worked out at 104 kcal/mol.

Consider A50S, for which the Tm came to 63.9 °C; the “change of melting temperature, mutant” value is -1 °C; the “heat capacity change of unfolding” value amounted to 1.65 kcal/mol/K. Moreover, under “64.9 °C”, the “ddG of mutation (higher = less stable)” value is 0.33 kcal/mol, the “heat capacity change of unfolding” value was found to be 1.65 kcal/mol/K and the “unfolding enthalpy (calorimetric)” value amounted to 111 kcal/mol.

V117T: the Tm was 63.3 °C; the “change of melting temperature, mutant” value was -1.6 °C; the “heat capacity change of unfolding” value came out at 1.41 kcal/mol/K. Under “64.9 °C”, the “heat capacity change of unfolding” value amounted to 1.41 kcal/mol/K and the “unfolding enthalpy (calorimetric)” value was 104 kcal/mol.

On to L26T, for which the Tm came out at 52.5 °C; the “change of melting temperature, mutant” value is -12.4 °C; the “heat capacity change of unfolding” value came to 1.39 kcal/mol/K. For the same variant, for the setting “64.9 °C”, the “ddG of mutation (higher = less stable)” value came out at 3.73 kcal/mol, the “heat capacity change of unfolding” value was 1.39 kcal/mol/K and the “unfolding enthalpy (calorimetric)” value is 107 kcal/mol.
